Reference: the nanobody polyreactivity screen of Harvey et al. (2022)

Experiment: yeast display, Sf9 membrane polyspecificity reagent, FACS + sequencing; frameworks hold sequencing errors
How it was run: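 Nanobodies from a synthetic yeast display library (Saccharomyces cerevisiae BJ5465), induced 36–48 hours with galactose, were stained 1 hour at 4 °C with 10% biotinylated, detergent-solubilized Sf9 membrane reagent, enriched on streptavidin microbeads, then FACS-sorted. Anti-HA (expression) and streptavidin (reagent binding) fluorescence set low and high (top ~1%) gates. Polyreactivity labels come from the gate of origin. Genes were colony-PCR amplified, MiSeq 2 × 250 sequenced and filtered by CDR length.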

Sequence | polyreactivity (PSR sort gate)
QVQLVESGGGLVQAGGSLRLSCAASGRIFYGNDRGWYRQAPGKERELVAAITWSGGSTYYADSVKGRFTISRDNAKNTVYLQMNSLKPEDTAVYYCAAVPRRGWDIRRYDSWGQGTQVTVSS | high polyreactivity
QVQLVESGGGLVQAGCSLRLSCAASGRTFSTYAMGWYRQAPGKERELVAAITRRGGSTYYADSVKRRFTISRDNAKNTVYLQINSLKPEDTAVYYCETYADRPPRTPDISYVSNFDYWGQGTQVTVSS | low polyreactivity
QVQLVESGGGLVQAGGSLRLSCAASGYTFIHNAMGWYRQAPGKERELVAAINRSGAITNYADSVKGRFTISRDNAKNTVYLQMNSLKPEDTAVYYCNADVDPLPPRYLHREVLKEYNYWGQGTQVTVSS | low polyreactivity
QVQLVETRGGLVQAGVSLRLICSASGSTFAPKSIGLYRQAPGKERELVAGLSWGDSTYYADSVKGRFTISRDNAKNTVYLQMISLKPEDTAVYFCAVRWVWNPCGIQGDWAVDYDYWGQGTQVTVSS | low polyreactivity
QDQLVESGGGLVQAGGSLRLSCAASGRIFYVYAMGWYRQAPGKEREFVASISWSGGSTYYADSVKGRFTISRDNAKNTFYLQLNSLKPEDTSVYYCNARAFTHRYDYWGQGTQVTVSS | low polyreactivity
QVQLVESGGGLVQAGGSLRLSCAASGSTFPQYTMGWSRQAQGKERELVAAITSGGRTYYADSVKGRFTISRDNAKNTVYLQMNSLKPEDTAVYFCAAGYWYRYFYYTSSPYDYWGQGTQVTVSS | high polyreactivity
QVQLVESGRGLVQAGGSLPLRCAASGPTFPFNAMGRYRQAPGKERELVAAISWRDGRTYYADSVKGRFTISRDNAKNTVYLHMNSLKPEDTAVYYCNVVKRRSDWGMDYWGQGTQVSVSS | high polyreactivity
QVQLVESGGGLVQAGGSLRLSCAASGITFYFNAMGWYRQAPGKERELVAAITFSGSSTYYADSVKGRFTISRDNAKNTVYLQMNSQKPEDSAVYYCAAYLTRYDFRWHTYYYWGLGTQVTVSS | low polyreactivity
QVQLVESGGGLVQAGGSLRLSCAASGSIFTSYAMGWYRQAPGKERELVAAITSTGGSTYYADSVKGRFTISRDPAKNTVYLLMNSLKPEDTAVYYCNADGGTPYDYWGQGTQVTVSS | low polyreactivity
QVQLVESGGGLVQAGGSLRLSCAASGFIFSYYAMGWYRQAPGKERELLAAISRNGGRTYYADSVKGRFTISRDNAKNTVYLQMNSLKPEDTAVYYCAATTYRTSSYIRYGSPKHDDYWGQGTQVTVSS | high polyreactivity
QVQLVESGGALVQAGGSLRLSCAASGRTFTFNTMGWYRQAPGKERELVAAIDGDGTTNYADSVKGRFTISRDNAKNTVYLLMNSLKPEDTAVYYCAADFLYSFWYEPTFDYCGQGTQVTVSS | low polyreactivity
QVQLVESGGGLVQAGGSLRLSCAASGLIFGWYAMGWSRQAPGKEREFVASIRYGGGSTYYADSVKGRFTISRDYAKNTVYLQMNSLKPEDTAVYYCAADRYPWHLQYVEYDSDYWGQGTQVTVSS | low polyreactivity
QVQLVESGGGLVQAGGSLRLSCADSGRIFAWYAMGWYRQAPGKERELVAVITSSDGSTHYADSVKGRFTISRDNAKNTVYLQMNSLKPEDTAVYYCNADSQRPRRRSNYWGQGTQVTVSS | low polyreactivity
QVQLVDSGGGLVQAGGSLRLSCAASGSTFRVNAMGWYRQAPGKERELGAAISGSGSGTYYADSVKGRFTISRDNAKNTVYLLMNSLKPEDTAVYYCAKVPKSRGYVGGMDYWGQGTQVTVSS | low polyreactivity
QVQLVESGGGLVQAGGSLRLSCAASGRIFSINVKGWYRHAPGKERELVAAISKRGGSTYYADSVKGRFTISRDNAKNTVYLQMNSLKPEDTAVYYCAARRHYTYGNGPSRGGQMDYWGQGTQVTVSS | high polyreactivity
QVQLVESGGGLVQAGGSLRLSCAASGIIYAYYAMGWYRLAPGKEREWVAGISSSGITNYADSVKGRFTISRDNAKNTVYLQMNSLKPEDTAVYSCATDWYYWRHFYWVRRGVRYYYWGQGTQVTVSS | high polyreactivity
QVQLVESGGGLVQAGGSLLLSCAAYGSTFWYNAMGWYRQAHGKESELVAAITWTGSRTYYADSVKGRFTISRDNAKNTVYLQMNSLKPEDTAVYYCNRTRSFTRYDVFYGTIPAFDYWGQGTQVTVSS | high polyreactivity
QVQLVESGGGLVQAGGSLRLSCAASGSILTDNAMRWYRQAPGKERELVAAITSGGSTYYADSVKGRFTISRDNAKNTVYLQMNSLKPEDTAVYYCNADPYTYSYGMYYWGQGTQVTVSS | low polyreactivity
QVQLVESGGGLVQAGGSLRLSCAASGLIFYRYAMGWYRQAPGKERELVADISWSGGTTYYADSVKGRFTISRDNAKNTVYLQMNSLKPEDTAVYYCAARSVPSPERGFYYWGQGTQVTVSS | high polyreactivity
QVQLVESGGGLVQAGGSLRLSCAASGRIFRSYAMGWYRQAPGKERELVAAITGSTGSTSYADSVKGRFTISRDNAKNTVYLQMNSLKPEDTAGYYCNAEYSSGYGQSHTYFYEYDYWGHGTQVTVSS | low polyreactivity
QVQLVESGGGLVKAGGSLRLSCAASGRTFGYYAMGWYRQSPGKERELVADIRQSGGRTYYADSVKGRFRISRDNAKNTVYLQMNSLKPVDTAVYYCAARRSYLAYTYRRSYPMDSWGQGTQVTVSS | high polyreactivity

Sequence | polyreactivity (PSR sort gate)
QVQHVESGGGLVQAGGSLRLSCAASGSIFRYYAMGWYRQAPGKERELVAASTSGGSTSYADSVKGRFTISRDNAKNTVYLQMNSLKPEDTAVYYCAKRSRHNKYYYWGQGTQVTVSS | high polyreactivity
QVQLVESGGRLVQAGGSLRLSCAASGSIFSYYAMGWYRQATGKERELVASISSAGSTNYADSVKGRFTISRDNAKNTVYLQMNSLKPEDTAVYYCNTDDDSSSTGYYSWGQGTQVTVSS | low polyreactivity
QVQLVESVGGLVQAGGSLRLSCAASGRIFDRYAMGWYRQAPGKERELVAAISSSGGSTYYADSVKGRFTISRDNAKNTVYLQMNSLKPEDTAVYYCAAPRSRSRTSRFDYWGQGTQVTVSS | high polyreactivity
QVQLVESGGGLVQAGGSLRLSCAASGIIFTFYTMGWYRQAPGKERELVAAITWSGGSTNYADSVKGRFTISRDNAKNTVYLQMNSLKPEDTAVYYCAAQGYPQSPPWEDYWGQGTQVTVSS | low polyreactivity
QVQLVESGGGLVQAGGTLRLSCPASGSNFNRYAMGSYRKAPGKERELVAAISSTGSTFYADSVKWRFTISRDNAKITVYLQMNSLTPEDTAVYYCNADATHDWLRVDTYEYWGQGTQVTVSS | low polyreactivity
QVQLVESGGGLVQAGGSLPLSCAASGRIFNQYGMVWYRQAPGKERELVAAIRSGDSTNYADSVKGRFTISRDNAMNTVYLQMKSLKPEDPAVYYCARDRPGDYAGYDYWGQGTQVTVSS | low polyreactivity
QVQLVESGGGLVQAGGSLRLSCAASGSTFTRYDMGSYRQAPGKERELVAAISKSGGSTYYADSVKGRFRISRDNAKNTVYLQMNSLKPEDTAVYYCNQLVEEDYWGQGTQVTVSS | low polyreactivity
QVQLVESGGGLVQAGGSLRLSCAASGSIFSKYAMGWYRQAPGKEWEVVAAIRSIGGSTYYADSVMGRFTISRDNAKNTVYLQMNSRNPDDTAVYYCAARFWPAYSGWYENWGQGTQVTVSS | low polyreactivity
QVQLVESGGGLVQAGGSLRLSCAASGRIFNVYDMGRYRQAPGKERELVAAISSGANTNYADSVKGRFTISRDNAKNTVYLQMNSLKPEDTAVYYCNTEQFYDYDYTFDYWGQGTQVTVSS | low polyreactivity
QVQLVETGGGLVQAGGSLRLSCAASGSIFASYAMGWYRQAPGKERELVAAITTSGGRTYYADSVKGRFTISRDNAKNTVYLQMNSLKPEDTAVYYCAVRYRGYGYDWGQGTQVTVSS | high polyreactivity
QVQLVESGGGLVQAGGSLRLSCAASGFILDYYDMGWYRQAPGKERELVAGINYGGDSTYYADSVKGRFTISRDNAKNTVYLQMNSLKPEDTAVYYCAADLYFQYPEYDYWGQGTQVTVSS | low polyreactivity
QVHLVESGGGLVQAGGSLRLSCAASGFTFRWYAMGGDRQAPGKERALVAAIDSTDITNYADSVKGRFTISRDNAKNTVYLQMNSLKPEDTAVYYCAAELYPALYPFRISGTYGYWGQGTLVTVSS | high polyreactivity
QVQLVESGGGLVQAGGSLRLSCAASGRTFYFYTLGWYRQAPGKERELVAAISWSGGSTYSADSVKGRFTISRDNAKNTVYLQLNSLKPEDTAVYYCAASSPWEQSNDQFYYWGQGTQVTVSS | low polyreactivity
QVQLVESGGGLVQAGGSLRLSCAASGLIFTYYDIGWYRQEPGKERELVASISWDGGRTYYADSVKGRFTIARDNAKKTVYLQMNSLKPEDTAVYYCAKRLGGSPIQARGDFWGQGTQVTVSS | low polyreactivity
QVQLVESGGGLVQAGGSLRLSCAASGSTFSIYAMGWYRQAPGKERELVAAITRRSGSTYYADSVKGRITISRDNAKNTVSLQMKSLKPEDTAVYYCAADTWRTDYTSSYYKNRDSWGQGTQVTVSS | high polyreactivity
QVQLVESGGGLVQAGGSLRLSCAASGSIFPIYAMGWYRQAPGKERELVAALNRSGGSTYYADSVKGRFTISRDNAKNTVYLQMNSLKPEDTAVYYCNADYGYHNQLFWGYYGWSSDHWGQGTQVTVSS | low polyreactivity
QVQLVESGGGLVQAGGSLRLSCAASGSIFGRYAMGWYRQAPGKERELVATITFRDTSTYYADSVKGRFTISRDTAKYTVLLLMNSLKPEDTAVYYCAAVRADLWDIARYDYWGQGTQETVSS | low polyreactivity
QVQRVESGGGLVQARGSLRLSCAASGSTFPAYAMGWYRQARGKEREWVATITYTGGSTFYADSVKGRFTISRDNAKNTVYLQMNILKPEDTEVYYCAADRGDQEDEFDYWGQGTQVTVSS | low polyreactivity
QVQLVESGGGLVQAGGSLRLSCAASGLTFYIYAMGWYRQAPGKEREFVAAIRRSDARTYYADSVKGRFTISRDNAKNTVYLQMNSLKPEDTAVYYCARPPWFTGYNSGYWGQGTQVTVSS | high polyreactivity
QVQHVESGAGLVQAGGSLLLSCAASGRIFQKYPMGWYRQSPGKERELVAAISRGGSTYYADSVKGRFTISRDNAKNTVYLQMISLNPEDTAVYFCASTSYRRTGYNYWGQGTQVTVSS | high polyreactivity
QVQLGESGGGLVQAGGSLRLICAASGFTFYDYAMGWYRQEPGKETEFVAAITRSGSSTYYADSVKGRFTISRDNAKNTVYLQMNSLKPEDTAVYYCAVGPFRRRGHYPTYYRYGYWGQGTQVTVSS | high polyreactivity
